# Patent US20250034268A1 (Innovent, published 2025)
# Where a chain is given by its changes, count along the chain named.
# T1: human BCMA expressed on the cell surface (human, UniProt Q02223 1-184)
# T1 construct: The same molecule is used here for hBCMA-CHO GS cells and for the endogenous BCMA of the myeloma lines; also called Human BCMA CHO-S cell; H929
# T1 sequence: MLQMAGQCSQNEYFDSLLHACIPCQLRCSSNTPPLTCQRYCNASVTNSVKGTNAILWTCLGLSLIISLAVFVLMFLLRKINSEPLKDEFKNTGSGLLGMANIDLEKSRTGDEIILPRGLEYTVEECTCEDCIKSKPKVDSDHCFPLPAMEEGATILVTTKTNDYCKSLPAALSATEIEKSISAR
# T2: Human BCMA monomer (human, UniProt Q02223 1-54, limits assumed)
# T2 construct: also called BCMA from human (mobile phase)
# T2 sequence (looked up): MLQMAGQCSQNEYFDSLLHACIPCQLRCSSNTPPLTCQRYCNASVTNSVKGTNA
# T3: Human BCMA-IHM (human, UniProt Q02223 1-54)
# T3 construct: also called BCMA from human (mobile phase); not shown: 'IHM' is not explained; it may be a tag
# T3 sequence (looked up): T2 sequence (looked up)
# T4: mouse BCMA expressed on CHO GS cells (mouse, UniProt O88472 1-185)
# T4 construct: whole, on cells; also called mBCMA-CHO GS; mBCMA-CHO-GS
# T4 sequence (looked up): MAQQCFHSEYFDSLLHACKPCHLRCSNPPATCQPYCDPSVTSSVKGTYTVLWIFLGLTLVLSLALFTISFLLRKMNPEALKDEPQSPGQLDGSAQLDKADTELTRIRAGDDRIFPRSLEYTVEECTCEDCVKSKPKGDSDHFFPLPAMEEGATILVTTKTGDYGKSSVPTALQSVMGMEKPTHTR
# T5: recombinant human BCMA protein (human, UniProt Q02223 1-54, limits assumed)
# T5 construct: The construct is not described
# T5 sequence (looked up): T2 sequence (looked up)
# T6: recombinant mouse BCMA protein (mouse, UniProt O88472 1-49, limits assumed)
# T6 construct: The construct is not described
# T6 chain (looked up): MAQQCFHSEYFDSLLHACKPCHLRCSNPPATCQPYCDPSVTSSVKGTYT
# B1: anti-BCMA parent antibody ADI-34861 (antibody, V domains shown)
# VH: QLQLQESGPGLVKPSETLSLTCTVSGGSISSSSYYWGWIRQPPGKGLEWIGSISYSGSTYYNPSLKSRVTISVDTSKNQFSLKLSSVTAADTAVYYCARDRGDTILDVWGQGTMVTVSS
# VL: DIQMTQSPSSLSASVGDRVTITCRASQSISRYLNWYQQKPGKAPKLLIYAASSLQSGVPSRFSGSGSGTDFTLTISSLQPEDFATYYCQQKYFDITFGGGTKVEIK
# notes: Tested as IgG (captured by anti-human Fc probe)
# B2: ADI-38497 PG antibody (antibody, V domains shown)
# VH: B1 VH with S30V, G37T, Y55I, S56A, T104Q, G110S
# VL: DIQMTQSPSSLSASVGDRVTITCRASQSISRYLNWYQQKPGKAPKLLIYAASSLQSGVPSRFSGSGSGTDFTLTISSLQPEDFATYYCQQKYFDITFGGGTKVEIKR
# notes: Expressed in HEK293 cells
# B3: antibody ADI-38497 (antibody, V domains shown)
# VH: B1 VH with S30V, G37T, Y55I, S56A, T104Q, G110S
# VL: B1 VL
# B4: antibody ADI-38491 (antibody, V domains shown)
# VH: B1 VH with S30V, G37T, Y55I, S56A
# VL: B1 VL
# B5: anti-BCMA parent antibody ADI-34857 (antibody, V domains shown)
# VH: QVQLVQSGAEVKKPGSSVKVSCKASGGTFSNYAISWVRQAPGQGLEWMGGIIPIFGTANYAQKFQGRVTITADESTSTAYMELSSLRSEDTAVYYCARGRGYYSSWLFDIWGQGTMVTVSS
# VL: DIQMTQSPSSLSASVGDRVTITCQASQDITNYLNWYQQKPGKAPKLLIYDASNLETGVPSRFSGSGSGTDFTFTISSLQPEDIATYYCQQAFDLITFGGGTKVEIK
# notes: as for B1
# B6: antibody ADI-38481 (antibody, V domains shown)
# VH: QVQLVQSGAEVKKPGSSVKVSCKASGGTFSNDVISWVRQAPGQGLEWMGVIIPIFGIANYAQKFQGRVTITADESTSTAYMELSSLRSEDTAVYYCARGRGYYSSWLLDIWGQGTMVTVSS
# VL: B5 VL
# B7: antibody ADI-38484 (antibody, V domains shown)
# VH: B6 VH with L108H
# VL: B5 VL
# B8: ADI-38484 PG antibody (antibody, human IgG1, kappa, V domains shown)
# VH: B6 VH with L108H
# VL: DIQMTQSPSSLSASVGDRVTITCQASQDITNYLNWYQQKPGKAPKLLIYDASNLETGVPSRFSGSGSGTDFTFTISSLQPEDIATYYCQQAFDLITFGGGTKVEIKR
# notes: Expressed in HEK293 cells
# Experiments:
# [1] = biological target: T1, human BCMA expressed on the cell surface; assay: flow cytometry, 10 nM antibody on H929 cells
# Human BCMA monomer = biological target: T2, Human BCMA monomer; assay: BLI (ForteBio Octet), IgG captured on AHC probe, antigen in solution, monovalent
# Human BCMA-IHM = biological target: T3, Human BCMA-IHM; assay: as above
# [2] = biological target: T1, human BCMA expressed on the cell surface; assay: flow cytometry, 10 nM antibody on human BCMA CHO-S cells against CHO-S cells
# [3] = biological target: T1, human BCMA expressed on the cell surface; assay: flow cytometry, 10 nM antibody on human BCMA CHO-S cells
# [4] = biological target: T7, Cynomolgus monkey BCMA-Fc (cynomolgus monkey, UniProt A0A2K5UD97 1-53); assay: BLI (ForteBio Octet), IgG captured on AHC probe, antigen in solution, avid
# T7 construct: also called BCMA from cynomolgus monkey (mobile phase); not shown: Fc part
# T7 sequence (A0A2K5UD97 entry or part of it): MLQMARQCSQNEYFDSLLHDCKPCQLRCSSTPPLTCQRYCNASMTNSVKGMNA
# Mouse BCMA-Fc = biological target: T8, Mouse BCMA-Fc (mouse, UniProt O88472 1-49, limits assumed); assay: as above
# T8 construct: also called BCMA from mouse (mobile phase); not shown: Fc part
# [5] = biological target: T4, mouse BCMA expressed on CHO GS cells; assay: flow cytometry on mBCMA-CHO-GS cells
# [6] = biological target: T1, human BCMA expressed on the cell surface; assay: flow cytometry on hBCMA-CHO-GS cells
# [7] = biological target: T1, human BCMA expressed on the cell surface; assay: flow cytometry on H929 cells
# [8] = biological target: T1, human BCMA expressed on the cell surface; assay: flow cytometry on L363 cells
# [9] = biological target: T1, human BCMA expressed on the cell surface; assay: flow cytometry on U266 cells
# [10] = biological target: T9, cynomolgus monkey BCMA expressed on CHO GS cells (cynomolgus monkey, UniProt A0A2K5UD97 1-183); assay: flow cytometry on cynoBCMA-CHO-GS cells
# T9 construct: whole, on cells; also called cynoBCMA-CHO GS; cynoBCMA-CHO-GS
# T9 sequence (A0A2K5UD97 entry or part of it): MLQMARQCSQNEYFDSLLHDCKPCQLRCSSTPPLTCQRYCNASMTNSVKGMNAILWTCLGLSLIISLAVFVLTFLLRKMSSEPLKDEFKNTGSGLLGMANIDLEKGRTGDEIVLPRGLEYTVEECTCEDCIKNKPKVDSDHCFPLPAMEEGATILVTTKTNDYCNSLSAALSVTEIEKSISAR
# [11] = biological target: T1, human BCMA expressed on the cell surface; assay: flow cytometry on AMO1 cells
# [12] = biological target: T1, human BCMA expressed on the cell surface; assay: flow cytometry on RPMI8226 cells
# [13] = biological target: T5, recombinant human BCMA protein; assay: SPR (Biacore T200), antibody captured by anti-human Fc on CM5 chip, antigen 1.25-40 nM, 1:1 model
# [14] = biological target: T6, recombinant mouse BCMA protein; assay: as above
# [15] = biological target: T10, recombinant rat BCMA protein (rat); assay: as above
# T10 construct: The construct is not described
# [16] = biological target: T11, recombinant cynomolgus monkey BCMA protein (cynomolgus monkey, UniProt A0A2K5UD97 1-53); assay: as above
# T11 construct: The construct is not described
# [17] = biological target: T1, human BCMA expressed on the cell surface; assay: flow cytometry on MM.1s cells
binder,measurement,setting,value
B1,"FON, Fold Over Negative",[1],6 fold
same,MFI,[1],1400
same,Kd,Human BCMA monomer,17.3 nM
same,Kd,Human BCMA-IHM,51.4 nM
same,"FOB, Fold Over Background",[2],4 fold
same,MFI,[3],1000
same,Kd,[4],2.11 nM
same,Kd,Mouse BCMA-Fc,3.68 nM
B2,EC50,[5],1.18 nM
same,EC50,[6],1.49 nM
same,EC50,[7],~1.71 nM
same,EC50,[8],5.11 nM
same,EC50,[9],1.79 nM
same,EC50,[10],1.69 nM
same,EC50,[11],2.43 nM
same,EC50,[12],2.12 nM
same,Kd,[13],0.061 nM
same,koff,[13],1.76e-05 s⁻¹
same,kon,[13],288000 M⁻¹ s⁻¹
same,Kd,[14],1.77 nM
same,koff,[14],0.000872 s⁻¹
same,kon,[14],492000 M⁻¹ s⁻¹
same,Kd,[15],83.1 nM
same,koff,[15],0.0831 s⁻¹
same,kon,[15],1e+06 M⁻¹ s⁻¹
same,Kd,[16],0.0301 nM
same,koff,[16],1.03e-05 s⁻¹
same,kon,[16],340000 M⁻¹ s⁻¹
same,EC50,[17],1.01 nM
B3,"FON, Fold Over Negative",[1],26 fold
same,MFI,[1],5670
same,Kd,Human BCMA monomer,0.621 nM
same,Kd,Human BCMA-IHM,1.02 nM
same,"FOB, Fold Over Background",[2],8 fold
same,MFI,[3],2320
same,Kd,[4],0.602 nM
same,Kd,Mouse BCMA-Fc,0.503 nM
B4,"FON, Fold Over Negative",[1],5 fold
same,MFI,[1],1100
same,Kd,Human BCMA monomer,1.02 nM
same,Kd,Human BCMA-IHM,2.62 nM
same,"FOB, Fold Over Background",[2],4 fold
same,MFI,[3],996
same,Kd,[4],1.27 nM
same,Kd,Mouse BCMA-Fc,3.04 nM
B5,"FON, Fold Over Negative",[1],10 fold
same,MFI,[1],2280
same,Kd,Human BCMA monomer,35.9 nM
same,Kd,Human BCMA-IHM,44 nM
same,"FOB, Fold Over Background",[2],3 fold
same,MFI,[3],877
same,Kd,[4],1.47 nM
B6,"FON, Fold Over Negative",[1],31 fold
same,MFI,[1],6660
same,Kd,Human BCMA monomer,0.1 nM
same,Kd,Human BCMA-IHM,0.496 nM
same,"FOB, Fold Over Background",[2],10 fold
same,MFI,[3],2620
same,Kd,[4],0.897 nM
same,Kd,Mouse BCMA-Fc,2.44 nM
B7,"FON, Fold Over Negative",[1],35 fold
same,MFI,[1],7720
same,Kd,Human BCMA monomer,0.0794 nM
same,Kd,Human BCMA-IHM,0.539 nM
same,"FOB, Fold Over Background",[2],11 fold
same,MFI,[3],2720
same,Kd,[4],1.07 nM
same,Kd,Mouse BCMA-Fc,0.85 nM
B8,EC50,[7],~1.55 nM
same,EC50,[8],0.934 nM
same,EC50,[9],2.79 nM
same,EC50,[11],4.25 nM
same,EC50,[12],0.428 nM
same,EC50,[17],1.95 nM
